Substrate in data set [1]: CC(C)CCC[C@@H](C)[C@H]1CC[C@H]2[C@@H]3CC=C4C[C@@H](O)CC[C@]4(C)[C@H]3CC[C@]12C
Put plainly: purified protein, by the assay type. The settings on record: other: compound as substrate, 37.0 °C.

Substrate in data set [2]: CC(C)CCC[C@@H](C)[C@H]1CC[C@H]2[C@@H]3CC=C4C[C@@H](OS(=O)(=O)O)CC[C@]4(C)[C@H]3CC[C@]12C
Put plainly: purified protein, by the assay type. The following applies: other: compound as substrate, 37.0 °C.

B1: Δ(2-50)CYP46A1dH (Homo sapiens) (protein)
chain: MKKDEVGGRVLQDVFLDWAKKYGPVVRVNVFHKTSVIVTSPESVKKFLMSTKYNKDSKMYRALQTVFGERLFGQGLVSECNYERWHKQRRVIDLAFSRSSLVSLMETFNEKAEQLVEILEAKADGQTPVSMQDMLTYTAMDILAKAAFGMETSMLLGAQKPLSQAVKLMLEGITASRNTLAKFLPGKRKQLREVRESIRFLRQVGRDWVQRRREALKRGEEVPADILTQILKAEEGAQDDEGLLDNFVTFFIAGHETSANHLAFTVMELSRQPEIVARLQAEVDEVIGSKRYLDFEDLGRLQYLSQVLKESLRLYPPAWGTFRLLEEETLIDGVRVPGNTPLLFSTYVMGRMDTYFEDPLTFNPDRFGPGAPKPRFTYFPFSLGHRSCIGQQFAQMEVKVVMAKLLQRLEFRLVPGQRFGLQEQATLKPLDPVLCTLRPRGWQPAPPPPPC
On to B1, for which, in data set [1] (Δ(2-50) CYP46A1), the Michaelis-Menten constant (Km) (usually the substrate concentration at which the rate is half of its maximum) was determined as 7.7 µM; the kcat (usually the maximal rate divided by the concentration of active sites) came to 0.43 min⁻¹; the kcat/Km (in general, the second-order rate constant that governs catalysis at low substrate concentration) turned out to be 1000 M⁻¹ s⁻¹. The Km in data set [2] (Δ(2-50) CYP46A1) was found to be 3.3 µM.

B2: full-length CYP46A1 (Homo sapiens) (protein)
chain: MSPGLLLLGSAVLLAFGLCCTFVHRARSRYEHIPGPPRPSFLLGHLPCFWKKDEVGGRVLQDVFLDWAKKYGPVVRVNVFHKTSVIVTSPESVKKFLMSTKYNKDSKMYRALQTVFGERLFGQGLVSECNYERWHKQRRVIDLAFSRSSLVSLMETFNEKAEQLVEILEAKADGQTPVSMQDMLTYTAMDILAKAAFGMETSMLLGAQKPLSQAVKLMLEGITASRNTLAKFLPGKRKQLREVRESIRFLRQVGRDWVQRRREALKRGEEVPADILTQILKAEEGAQDDEGLLDNFVTFFIAGHETSANHLAFTVMELSRQPEIVARLQAEVDEVIGSKRYLDFEDLGRLQYLSQVLKESLRLYPPAWGTFRLLEEETLIDGVRVPGNTPLLFSTYVMGRMDTYFEDPLTFNPDRFGPGAPKPRFTYFPFSLGHRSCIGQQFAQMEVKVVMAKLLQRLEFRLVPGQRFGLQEQATLKPLDPVLCTLRPRGWQPAPPPPPC
With B2, in data set [1] (Full-length CYP46A1), the Km is 5.4 µM, the kcat is reported as 0.11^2 min^−1 and the specificity constant (kcat/Km) was determined as 330 M⁻¹ s⁻¹. Besides, the Km in data set [2] (Full-length CYP46A1) amounted to 4.9 µM.
